B1: Enh4 (dsDNA)
DNA 1: GGGGTAAGAAATCTGACGACAGG
DNA 2: CCTGTCGTCAGATTTCTTACCCC
B2: Enh6 (dsDNA)
DNA 1: CGTCAAGGAAACCTTATTCCATC
DNA 2: GATGGAATAAGGTTTCCTTGACG
B3: Enh2 (dsDNA)
DNA 1: TCATAAGGAAATCTAAGTCAACC
DNA 2: GGTTGACTTAGATTTCCTTATGA
B4: Enh3 (dsDNA)
DNA 1: TGTAAGAGAAACTGAAATAAAAT
DNA 2: ATTTTATTTCAGTTTCTCTTACA
B5: Enh1 (dsDNA)
DNA 1: CTCTTGGGTAACTGGAGCCCCTC
DNA 2: GAGGGGCTCCAGTTACCCAAGAG

These binders were tested against T1, Six1 (Mus musculus, UniProt Q62231 1-284) (assay: competition EMSA; 10x and 100x vs labeled Myogenin MEF3; EMSA as previously described (ref 38); buffer, salt, pH and temperature not given). Settings: protein: ivt; blunt.
T1 sequence: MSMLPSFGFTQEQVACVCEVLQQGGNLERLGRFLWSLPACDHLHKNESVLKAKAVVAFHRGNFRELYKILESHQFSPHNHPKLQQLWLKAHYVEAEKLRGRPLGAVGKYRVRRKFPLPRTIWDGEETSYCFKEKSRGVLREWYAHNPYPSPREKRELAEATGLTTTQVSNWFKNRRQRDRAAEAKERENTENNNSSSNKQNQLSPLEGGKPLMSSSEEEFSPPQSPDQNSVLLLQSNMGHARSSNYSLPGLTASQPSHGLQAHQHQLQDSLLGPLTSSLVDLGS

Binding result, binds:
B1
B2
B3
B4
B5

Source: paper PMC4031048, “Six Homeoproteins and a linc-RNA at the Fast MYH Locus Lock Fast Myofiber Terminal Phenotype”
